Experiments:
[1] = target: Schizosaccharomyces pombe Rpn10, full-length (residues 1-243) (Schizosaccharomyces pombe) (UniProt O94444); assay: AUC
[2] = target: Schizosaccharomyces pombe Rpn10, full-length (residues 1-243) (Schizosaccharomyces pombe) (UniProt O94444); assay: ITC
[3] = target: Schizosaccharomyces pombe Rpn10, full-length (residues 1-243) (Schizosaccharomyces pombe) (UniProt O94444); assay: SPR

Sequence of Schizosaccharomyces pombe Rpn10, full-length (residues 1-243) (Schizosaccharomyces pombe) (O94444 whole entry, the tested form may be a part): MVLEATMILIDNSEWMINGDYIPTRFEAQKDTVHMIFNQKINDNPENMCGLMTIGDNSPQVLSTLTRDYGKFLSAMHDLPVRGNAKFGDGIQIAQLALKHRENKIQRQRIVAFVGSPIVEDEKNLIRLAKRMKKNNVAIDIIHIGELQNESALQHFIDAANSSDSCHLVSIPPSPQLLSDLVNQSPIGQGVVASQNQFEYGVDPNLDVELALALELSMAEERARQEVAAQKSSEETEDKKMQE

Substance | stoichiometry N [1] | Kd [2] | stoichiometry N [2] | Kd [3] | KD of each of the two equivalent sites [2]
Lys48-linked diubiquitin (from UniProt P0CG47 1-76; P0CG47 1-76) | 1 | 13.9 µM | 1 | 35 µM | 
Lys63-linked diubiquitin (from UniProt P0CG47 1-76; P0CG47 1-76) | 1 |  |  |  | 134 µM

— PMC2962499
